Measurements from patent US20200277382A1 (TUFTS MEDICAL CENTER, published 2020).

Target: T1, integrin α5 (obligate heterodimer α5β1) (human, UniProt P08648 42-1049; P05556 21-798)
T1 construct: whole, on cells; on the cells α5 stands as α5β1; also called alpha 5; ITGA5
Assay: flow cytometry on a panel of cell lines with variable integrin α5 and alpha-V expression
Procedure: Flow Cytometry: Cells with variable membrane integrin α5 and alpha-V expression were incubated with monoclonal α5 or alpha-V antibodies (Millipore MAB1956Z and MABT207), the bispecific antibody construct ITGA5B1xAV, or isotype control, for 1 hour at room temperature followed by 1 hour of incubation with a secondary-conjugated antibody, before being analyzed by flow cytometry.
Statistics: The mean fluorescent intensities (MFI) for the α5, alpha-V, and bispecific ITGA5B1xAV stained cell populations for each cell line were calculated from the flow cytometry data. Then a correlation coefficient between the sum of α5 and alpha-V MFIs and the bispecific ITGA5B1xAV was calculated.
The sum of integrin α5 and integrin alpha-V binding (MFI) was highly correlated with bispecific binding (correlation.9187; FIG. 3B).

B1: ITGA5B1xAV bispecific, tetravalent antibody construct (bispecific antibody, human IgG2, kappa)
heavy: QVQLQQSGGELAKPGASVKVSCKASGYTFSSFWMHWVRQAPGQGLEWIGYINPRSGYTEYNEIFRDKATMTTDTSTSTAYMELSSLRSEDTAVYYCASFLGRGAMDYWGQGTTVTVSSASTKGPSVFPLAPCSRSTSESTAALGCLVKDYFPEPVTVSWNSGALTSGVHTFPAVLQSSGLYSLSSVVTVPSSNFGTQTYTCNVDHKPSNTKVDKTVERKCCVECPPCPAPPVAGPSVFLFPPKPKDTLMISRTPEVTCVVVDVSHEDPEVQFNWYVDGVEVHNAKTKPREEQFNSTFRVVSVLTVVHQDWLNGKEYKCKVSNKGLPAPIEKTISKTKGQPREPQVYTLPPSREEMTKNQVSLTCLVKGFYPSDIAVEWESNGQPENNYKTTPPMLDSDGSFFLYSKLTVDKSRWQQGNVFSCSVMHEALHNHYTQKSLSLSPGKGGGGSGGGGSQVQLKESGPGLVAPSQSLSITCTISGFSLTDYGVHWVRQPPGKGLEWLVVIWSDGSSTYNSALKSRMTIRKDNSKSQVFLIMNSLQTDDSAMYYCARHGTYYGMTTTGDALDYWGQGTSVTVSSGGGGSGGGGSGGGGSQIVLTQSPAIMSASLGERVTMTCTASSSVSSNYLHWYQQKPGSAPNLWIYSTSNLASGVPARFSGSGSGTSYSLTISSMEAEDAATYYCHQYLRSPPTFGGGTKLEIK
light: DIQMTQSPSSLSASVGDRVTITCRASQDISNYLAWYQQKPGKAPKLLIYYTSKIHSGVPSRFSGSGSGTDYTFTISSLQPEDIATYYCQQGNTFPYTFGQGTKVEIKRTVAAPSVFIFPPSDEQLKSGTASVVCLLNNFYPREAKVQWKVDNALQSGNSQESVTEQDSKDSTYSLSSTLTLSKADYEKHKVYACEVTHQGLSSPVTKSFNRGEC
notes: also called ITGa5β1xaV; bispecific ITGA5V
Does B1 bind?
Result: binds
